PMC10705692

Columns and labels:
[1] = whole-cell patch clamp, HEK293T, 10 s domoate; conditions: glycan lost; control: GluK2 WT
[2] = paired-pulse whole-cell patch clamp, tau recovery; conditions: glycan lost; control: GluK2 WT
[3] = whole-cell patch clamp, 3 ms glutamate, tau deactivation; conditions: glycan lost
[4] = whole-cell patch clamp, HEK293T, tau desensitization; conditions: glycan lost

B1: GluK2 KAR: T277A (protein)
parent chain: MKIISPVLSNLVFSRSIKVLLCLLWIGYSQGTTHVLRFGGIFEYVESGPMGAEELAFRFAVNTINRNRTLLPNTTLTYDTQKINLYDSFEASKKACDQLSLGVAAIFGPSHSSSANAVQSICNALGVPHIQTRWKHQVSDNKDSFYVSLYPDFSSLSRAILDLVQFFKWKTVTVVYDDSTGLIRLQELIKAPSRYNLRLKIRQLPADTKDAKPLLKEMKRGKEFHVIFDCSHEMAAGILKQALAMGMMTEYYHYIFTTLDLFALDVEPYRYSGVNMTGFRILNTENTQVSSIIEKWSMERLQAPPKPDSGLLDGFMTTDAALMYDAVHVVSVAVQQFPQMTVSSLQCNRHKPWRFGTRFMSLIKEAHWEGLTGRITFNKTNGLRTDFDLDVISLKEEGLEKIGTWDPASGLNMTESQKGKPANITDSLSNRSLIVTTILEEPYVLFKKSDKPLYGNDRFEGYCIDLLRELSTILGFTYEIRLVEDGKYGAQDDVNGQWNGMVRELIDHKADLAVAPLAITYVREKVIDFSKPFMTLGISILYRKPNGTNPGVFSFLNPLSPDIWMYILLAYLGVSCVLFVIARFSPYEWYNPHPCNPDSDVVENNFTLLNSFWFGVGALMQQGSELMPKALSTRIVGGIWWFFTLIIISSYTANLAAFLTVERMESPIDSADDLAKQTKIEYGAVEDGATMTFFKKSKISTYDKMWAFMSSRRQSVLVKSNEEGIQRVLTSDYAFLMESTTIEFVTQRNCNLTQIGGLIDSKGYGVGTPMGSPYRDKITIAILQLQEEGKLHMMKEKWWRGNGCPEEESKEASALGVQNIGGIFIVLAAGLVLSVFVAVGEFLYKSKKNAQLEKRSFCSAMVEELRMSLKCQRRLKHKPQAPVIVKTEEVINMHTFNDRRLPGKETMA
increases: other: desensitization rate [1] | other: rate of recovery from desensitization [2] | other: deactivation rate ([3]; control: GluK2 WT) | other: desensitization rate ([4]; control: GluK2 WT)

B2: GluK2 KAR: T277A/R775A (protein)
parent chain: MKIISPVLSNLVFSRSIKVLLCLLWIGYSQGTTHVLRFGGIFEYVESGPMGAEELAFRFAVNTINRNRTLLPNTTLTYDTQKINLYDSFEASKKACDQLSLGVAAIFGPSHSSSANAVQSICNALGVPHIQTRWKHQVSDNKDSFYVSLYPDFSSLSRAILDLVQFFKWKTVTVVYDDSTGLIRLQELIKAPSRYNLRLKIRQLPADTKDAKPLLKEMKRGKEFHVIFDCSHEMAAGILKQALAMGMMTEYYHYIFTTLDLFALDVEPYRYSGVNMTGFRILNTENTQVSSIIEKWSMERLQAPPKPDSGLLDGFMTTDAALMYDAVHVVSVAVQQFPQMTVSSLQCNRHKPWRFGTRFMSLIKEAHWEGLTGRITFNKTNGLRTDFDLDVISLKEEGLEKIGTWDPASGLNMTESQKGKPANITDSLSNRSLIVTTILEEPYVLFKKSDKPLYGNDRFEGYCIDLLRELSTILGFTYEIRLVEDGKYGAQDDVNGQWNGMVRELIDHKADLAVAPLAITYVREKVIDFSKPFMTLGISILYRKPNGTNPGVFSFLNPLSPDIWMYILLAYLGVSCVLFVIARFSPYEWYNPHPCNPDSDVVENNFTLLNSFWFGVGALMQQGSELMPKALSTRIVGGIWWFFTLIIISSYTANLAAFLTVERMESPIDSADDLAKQTKIEYGAVEDGATMTFFKKSKISTYDKMWAFMSSRRQSVLVKSNEEGIQRVLTSDYAFLMESTTIEFVTQRNCNLTQIGGLIDSKGYGVGTPMGSPYADKITIAILQLQEEGKLHMMKEKWWRGNGCPEEESKEASALGVQNIGGIFIVLAAGLVLSVFVAVGEFLYKSKKNAQLEKRSFCSAMVEELRMSLKCQRRLKHKPQAPVIVKTEEVINMHTFNDRRLPGKETMA
increases: other: deactivation rate ([3]; control: R775A) | other: desensitization rate ([4]; control: R775A)
